Experimental data taken from patent US20140056903A1 (Regeneron, published 2014).

T1: human GFRα3 expressed with a C-terminal mFc tag (human)
T1 construct: also called hGFRα3-mFc
T1 chain: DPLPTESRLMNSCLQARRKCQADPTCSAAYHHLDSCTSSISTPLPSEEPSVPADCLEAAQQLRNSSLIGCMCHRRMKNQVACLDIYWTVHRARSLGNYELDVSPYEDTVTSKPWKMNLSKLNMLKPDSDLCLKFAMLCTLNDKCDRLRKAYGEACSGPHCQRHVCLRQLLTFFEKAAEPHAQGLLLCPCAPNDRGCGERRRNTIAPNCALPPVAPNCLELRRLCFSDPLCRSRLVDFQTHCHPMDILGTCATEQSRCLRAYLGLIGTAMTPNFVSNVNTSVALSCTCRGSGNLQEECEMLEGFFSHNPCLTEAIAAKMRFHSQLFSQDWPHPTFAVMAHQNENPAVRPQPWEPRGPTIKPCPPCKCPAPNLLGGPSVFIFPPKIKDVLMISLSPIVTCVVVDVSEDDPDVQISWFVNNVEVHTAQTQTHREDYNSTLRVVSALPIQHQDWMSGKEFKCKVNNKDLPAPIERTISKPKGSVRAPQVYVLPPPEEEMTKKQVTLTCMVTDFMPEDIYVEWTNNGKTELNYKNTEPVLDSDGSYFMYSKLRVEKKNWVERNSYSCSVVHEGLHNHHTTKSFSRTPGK

T2: monkey GFRα3 expressed with a C-terminal myc-myc-hexahistidine tag (monkey (Mf), UniProt O60609 32-374 (human entry), limits assumed)
T2 construct: also called MfGFRα3-mmh; MfGFRα3-mmH
T2 chain: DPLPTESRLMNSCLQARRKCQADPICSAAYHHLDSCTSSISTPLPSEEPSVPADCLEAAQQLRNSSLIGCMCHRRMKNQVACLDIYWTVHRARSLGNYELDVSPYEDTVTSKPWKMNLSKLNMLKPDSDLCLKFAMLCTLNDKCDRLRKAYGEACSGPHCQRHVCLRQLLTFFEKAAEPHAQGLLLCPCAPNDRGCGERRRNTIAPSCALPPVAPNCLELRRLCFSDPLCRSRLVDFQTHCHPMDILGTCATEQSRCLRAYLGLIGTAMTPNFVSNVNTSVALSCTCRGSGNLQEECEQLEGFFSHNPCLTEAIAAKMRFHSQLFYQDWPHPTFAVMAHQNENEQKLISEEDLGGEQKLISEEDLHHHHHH


Tests used:
[1] = biological target: T3, human GFRα3 expressed with a C-terminal myc-myc-hexahistidine tag (human, UniProt O60609 32-374, biotinylated (sites not given) in ELISA format 2 and in the Octet cross-competition; not in SPR); test: SPR, Ab captured, 25C
T3 construct: also called hGFRα3-mmh; hGFRα3-mmH
Experimental: (§1) Antibodies were tested for binding to human GFRα3 expressed with either a C-terminal myc-myc-hexahistidine tag (hGFRα3-mmh; SEQ ID: 370, a C-terminal hFc tag (hGFRα3-hFc; SEQ ID:371), or a C-terminal mFc tag (hGFRα3-mFc; SEQ ID:372), as well as monkey GFRα3 expressed with a C-terminal myc-myc-hexahistidine tag (MfGFRα3-mmh; SEQ ID:373). Anti-GFRα3 antibodies were captured on either a goat anti-mouse IgG polyclonal antibody (GE Healthcare, #BR-1008-38) or a mouse anti-human IgG monoclonal antibody (GE Healthcare, #BR-1008-39) surface created through direct amine coupling to a Biacore CM5 sensor chip. Kinetic experiments were carried out using HBS-EP (10 mM HEPES, 150 mM NaCl, 3 mM EDTA, 0.05% Surfactant P20, at pH 7.4) or PBS buffer containing 0.05% v/v surfactant P20 as both the running buffer and the sample buffer. Binding to human GFRα3-mmh or monkey GFRα3-mmh was evaluated by injecting several concentrations ranging from 200 to 7.4 nM (3-fold dilutions) across the captured antibody surface. Binding to human GFRα3-mFc or human GFRα3-hFc was evaluated by injecting several concentrations ranging from 100 to 3.7 nM (3-fold dilutions) across the captured antibody surface. Antibody-antigen association was monitored for up to 4 minutes, while dissociation in buffer was monitored for up to 20 minutes. Kinetic association (kₐ) and dissociation (kd) rate constants were determined by processing and fitting the data to a 1:1 binding model using Scrubber 2.0c curve fitting software. Binding dissociation equilibrium constants (KD) and dissociative half-lives (t_{1/2}) were calculated from the kinetic rate constants as: KD (M)=kd/kₐ and t_{1/2} (min)=[ln 2/(60*kd)].

[2] = biological target: T1, human GFRα3 expressed with a C-terminal …; test: SPR, Ab captured, 25C
Experimental: as §1

[3] = biological target: T2, monkey GFRα3 expressed with a …; test: SPR, Ab captured, 25C
Experimental: as §1

[4] = biological target: T3, human GFRα3 expressed with a C-terminal …; test: Octet cross-competition; biotin-hGFRα3-mmH pre-saturated with first antibody H4H2236N3
Experimental: A cross-competition assay was conducted to assess the ability of select antibodies to compete with one another for binding to human GFRα3 using an Octet RED384 biosensor (Fortebio Inc.). The entire experiment was performed at 25° C. with the flow rate of 1000 rpm in Octet HBST buffer (0.01 M HEPES pH7.4, 0.15M NaCl, 3 mM EDTA, 0.05% v/v Surfactant P20, 0.1 mg/mL BSA). To assess whether 2 antibodies were able to compete with one another for binding to their respective epitopes on biotinylated recombinant human GFRα3 expressed with a C-terminal myc-myc-hexahistidine tag (biotin-hGFRα3-mmH; SEQ ID:370), around ˜1.2 nm of biotin-hGFRα3-mmH was first captured onto streptavidin-coated Octet sensor tips (Fortebio Inc, #18-5019) by submerging the tips for 1 minute into a 10 μg/mL solution of biotin-hGFRα3-mmH. The antigen coated sensor tips were then placed into wells containing 25 μg/mL solution of a first anti-GFRα3 monoclonal antibody for 4 minutes to saturate the biotin-hGFRα3-mmH surface. The sensor tips were then subsequently dipped into wells containing 25 μ/mL solution of a second anti-GFRα3 monoclonal antibody. The sensor tips were washed in Octet HBST buffer in between every step of the experiment. The real-time binding response was monitored during the course of the experiment and the binding response at the end of every step was recorded as shown in FIG. 9. The response of mAb-2 binding to biotin-hGFRα3-mmH pre-complexed with the first antibody was compared and competitive/non-competitive behavior of different anti-GFRα3 monoclonal antibodies was determined.

Binder	Kd [1] [nM]	koff [1] [s⁻¹]	kon [1] [M⁻¹ s⁻¹]	t1/2 [1] [h]	Kd [2] [nM]	koff [2] [s⁻¹]	kon [2] [M⁻¹ s⁻¹]	t1/2 [2] [h]	Kd [3] [nM]	koff [3] [s⁻¹]	kon [3] [M⁻¹ s⁻¹]	t1/2 [3] [h]	binding response of second antibody (nm) [4] [nm]
H4H2345S (antibody, human IgG4, V domains shown, human IgG4 Fc (H4H)) VH: EVQLVESGGGLVRPGRSLRLSCAASGFTFDNYAMHWVRQVPGKGLEWVSGITWNSVSLGYADSVKGRFTISRDNAQNSLYLQMNSLRTVDTALYYCAKDRWGGSYYFDFWGQGTLVTVSS VL: DIVMTQSPSSLSASVGDRVTITCRASQGISNYLAWYQQKPGKVPKLLIYSASTLQSGVPSRFSGSGSGTDFTLTISNLQPEDFATFFCQKYNSAPTFGGGTKVEIK	29.7	0.00323	109000	0.0667	0.0584	3.01e-05	516000	6.4	28.7	0.00279	97500	0.0667	–
H4H2236N3 (antibody, human IgG4, V domains shown, human IgG4 Fc (H4H)) VH: EVQLLESGGNLVQPGGSLRLSCAASGFTFSSYAMTWVRQAPGKGLEWVSTISGSGTSTYYADSVKGRFTISRDNSRDTVFLQMNSLRAEDTAVYYCSKPSALRFLHWLAMDVWGQGTLVTVSS VL: DIQMTQSPSSLSAFVGDRVTITCRASQDIRNYLDWFQQKPGKAPKSLIYAASNLQSGVPSRFGGSGSGTDFTLTINSLQPEDFVTYYCQQYNSYPPTFGGGTKVEIK	0.253	0.000233	922000	0.833	–	–	–	–	–	–	–	–	0
H4H2212N (antibody, human IgG4, V domains shown, human IgG4 Fc (H4H)) VH: EVQLLESGGGLVQPGGSLRLSCAASGFTFSSYAMSWVRQGPGKGLEWVSGISGSGGSTYNADSVKGRFTISRDNSKNTLYLQMNSLRAEDTAVYYCAKDSGTYWYYFDYWGQGILVTVSS VL: not shown	–	–	–	–	–	–	–	–	–	–	–	–	1.79
H4H2341S (antibody, human IgG4, V domains shown, human IgG4 Fc (H4H)) VH: EVQLVESGAEVKKSGSSVKVSCKASGGTFSRYAISWVRQAPGQGLEWMGGIIPLFGTLNYAQKFQGRVTLTTDESTSTAYMELSSLRSEDTAVYYCAVFYYGSGSYRNWFDPWGQGTLVTVSS VL: not shown	1.68	0.000267	159000	0.717	≤ 0.00168	≤ 1e-06	596000	192	1.39	0.00013	93800	1.48	–
H4H2344S (antibody, human IgG4, V domains shown, human IgG4 Fc (H4H)) VH: EVQLVESGGGVVQPGRSLRLSCAASGFSFSDYVMHWVRQAPGKGLEWVASIWFDGSNEFYADSVKGRFTISRDNSKNTLFLQMNSLRAEDTAVYYCAKKGVLVATSAFDIWGQGTMVTVSS VL: DIQMTQSPSSLSASVGDRVTITCRASQSINNYLNWYHQKPGKAPKLLIYAASSLQSGVPSRFSGSGSGTDYTLTISSLQPEDFGNYYCQQSYRTSMYTFGQGTKVEIK	1.31	0.00024	183000	0.8	0.00269	1.56e-06	579000	123	1.1	0.000115	104000	1.68	–
H4H2293P (antibody, human IgG4, V domains shown, human IgG4 Fc (H4H)) VH: QVQLVESGGGVVQPGRSLRLSCAASGFSFSDYVMHWVRQAPGKGLEWVASIWFDGSNELYADSVKGRFTISRDNSKNTLFLQMNSLRAEDTAVYYCAKKGVLVATSAFHIWGQGTMVTVSS VL: AIQMTQSPSSLSASVGDRVTITCRASQNINNYLNWYHQKPGKAPNLLIYAASSLQSGVPSRFSGSGSGTDYTLTISSLQPEDFGNYYCQQSYSTSMYTFGQGTKLEIK	0.219	0.000127	581000	1.52	0.00159	1.93e-06	1.22e+06	99.8	0.144	4.17e-05	290000	4.62	–

Continued, values first:

Kd [1] [nM]	koff [1] [s⁻¹]	kon [1] [M⁻¹ s⁻¹]	t1/2 [1] [h]	Kd [2] [nM]	koff [2] [s⁻¹]	kon [2] [M⁻¹ s⁻¹]	t1/2 [2] [h]	Kd [3] [nM]	koff [3] [s⁻¹]	kon [3] [M⁻¹ s⁻¹]	t1/2 [3] [h]	binding response of second antibody (nm) [4] [nm]	Binder
0.104	3.67e-05	353000	5.25	≤ 0.0013	≤ 1e-06	771000	192	1.06	0.00013	122000	1.48	–	H4H2364S (antibody, human IgG4, V domains shown, human IgG4 Fc (H4H)) VH: EVQLVESGGGLEQPGGSLRLSCAASGFTFSSYVMSWVRQVPGKGLEWVSVISGSGGSTYYADSVKGRFTISRDNSKNTLYLQMNSLRAEDTAVYYCAKPSSYSSSNFHYGMDVWGQGTTVTVSS VL: DIQMTQSPYSVSASVGDRVTITCRASQGISSWLAWYQQKPGRAPKLLIYAASSLQSGVPSRFSGSGSGTDFTLTISSLQPEDFATYYCQKTNSFPFTFGPGTKVEIK
0.43	7.99e-05	186000	2.42	0.0222	1.44e-05	647000	13.4	0.556	5.98e-05	108000	3.22	–	H4H2346S (antibody, human IgG4, V domains shown, human IgG4 Fc (H4H)) VH: QVQLVESGGGVVQPGRSLRLSCAASGFSFSDYVMHWVRQAPGKGLEWVASIWFDGSNEFYADSVKGRFTISRDNSKNTLFLQMNSLRAEDTAVYYCAKKGVLVATSAFDIWGQGTMVTVSS VL: EIVMTQSPSSLSASVGDRVTITCRASQSINNYLNWYHQKPGKAPKLLIYAASSLQSGVPSRFSGSGSGTDYTLTISSLQPEDFGNYYCQQSYRTSMYTFGQGTKVEIK
0.548	0.00011	200000	1.75	0.0189	1.09e-05	580000	17.6	0.574	6.23e-05	109000	3.08	–	H4H2354S (antibody, human IgG4, V domains shown, human IgG4 Fc (H4H); also called H4H2354S-1) VH: QVQLVESGGGVVQPGRSLRLSCAASGFSFSDYVMHWVRQAPGKGLEWVASIWFDGSNEFYADSVKGRFTISRDNSKNTLFLQMNSLRAEDTAVYYCAKKGVLVATSAFDIWGQGTMVTVSS VL: DIQLTQSPSSLSASVGDRVTITCRASQSINNYLNWYHQKPGKAPKLLIYAASSLQSGVPSRFSGSGSGTDYTLTISSLQPEDFGNYYCQQSYRTSMYTFGQGTKVEIK
